The values that follow come from patent US20160053025A1 (SAMSUNG ELECTRONICS, published 2016).

What all share (test): ELISA, antibody coated, FLAG-tagged mutant Ang2 RBD detected with anti-FLAG-HRP
Experiment [1] deals with T1, Ang2 RBD Q418A, FLAG-tagged (human, UniProt O15123 281-496, limits assumed).
T1 chain: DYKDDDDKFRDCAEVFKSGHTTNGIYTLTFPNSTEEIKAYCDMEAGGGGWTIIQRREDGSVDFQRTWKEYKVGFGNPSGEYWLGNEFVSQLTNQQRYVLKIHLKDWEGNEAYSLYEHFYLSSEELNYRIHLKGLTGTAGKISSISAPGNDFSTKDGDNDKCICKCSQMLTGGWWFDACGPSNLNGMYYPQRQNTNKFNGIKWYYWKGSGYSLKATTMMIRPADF
Here is the method:
(§1) To verify the epitope (or specific binding site) of the anti-Ang2 antibody prepared in Reference Example 2.3, an ELISA was performed using a recombinant protein where a receptor binding domain (RBD) of Ang2 protein in the form of being tagged with Flag was mutated by artificial means.
(§2) Each well of a 96-well MaxiSorp™ flat-bottom plate (Nunc) was coated with 50 ul (microliter) of 1000 nM antibody. Then, the plate was washed five times with 0.05% (v/v) Tween-20-containing PBS (PBST) and blocked with 1% (v/v) BSA-containing PBS at a room temperature for 2 hours. 250 ng of each mutant Ang2 protein obtained by substituting S417, Q418, P419, N421, 1434, D448, A449, P452, Y460, N467, K468, or F469 residue of Ang2 protein tagged with a FLAG sequence ([…], Sigma) at its N-terminal with alanine was added to each well of the plate, which was then allowed to react at a room temperature for 2 hours.
(§3) Finally, 50 ul of TMB substrates (Cell signaling) was added to each well of the plate to induce color development at a room temperature for 3 min. and the reaction was ceased by the addition of 50 ul of Stop solution (Cell signaling) and then, OD450 values were measured on a plate reader (Molecular Devices). By comparing binding affinities with mutated Ang2 to those of unmutated Ang2, each epitope of Ang2 antibodies was identified. The obtained measurement results of the binding affinities (%) with mutant Ang2 against the binding affinity with the native Ang2 are shown in the following Table 13.

Experiment [2] deals with T2, Ang2 RBD P419A, FLAG-tagged (human, UniProt O15123 281-496, limits assumed).
T2 chain: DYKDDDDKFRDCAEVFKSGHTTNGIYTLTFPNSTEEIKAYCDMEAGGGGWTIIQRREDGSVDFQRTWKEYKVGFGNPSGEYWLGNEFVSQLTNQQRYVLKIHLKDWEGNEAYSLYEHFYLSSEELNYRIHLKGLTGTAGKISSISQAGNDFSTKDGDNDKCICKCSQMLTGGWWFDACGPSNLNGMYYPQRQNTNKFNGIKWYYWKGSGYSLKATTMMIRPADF
Here is the method: as §1, §2, §3

For experiment [3], the target named is T3, Ang2 RBD P452A, FLAG-tagged (human, UniProt O15123 281-496, limits assumed).
T3 chain: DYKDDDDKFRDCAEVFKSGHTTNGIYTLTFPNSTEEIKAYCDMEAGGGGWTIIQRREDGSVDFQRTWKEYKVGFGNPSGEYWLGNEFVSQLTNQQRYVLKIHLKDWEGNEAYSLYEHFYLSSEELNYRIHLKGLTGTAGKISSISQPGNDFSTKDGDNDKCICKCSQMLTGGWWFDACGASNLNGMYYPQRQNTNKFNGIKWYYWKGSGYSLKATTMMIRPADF
As to the method:
as §1, §2, §3

For experiment [4], the target named is T4, Ang2 RBD Y460A, FLAG-tagged (human, UniProt O15123 281-496, limits assumed).
T4 chain: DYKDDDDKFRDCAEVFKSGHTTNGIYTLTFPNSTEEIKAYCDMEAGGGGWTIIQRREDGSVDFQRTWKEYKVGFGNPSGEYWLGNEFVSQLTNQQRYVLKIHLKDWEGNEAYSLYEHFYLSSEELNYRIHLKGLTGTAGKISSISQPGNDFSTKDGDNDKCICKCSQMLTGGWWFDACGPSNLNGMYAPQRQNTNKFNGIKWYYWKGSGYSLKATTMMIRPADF
As to the method:
as §1, §2, §3

In experiment [5] the target is T5, Ang2 RBD N467A, FLAG-tagged (human, UniProt O15123 281-496, limits assumed).
T5 chain: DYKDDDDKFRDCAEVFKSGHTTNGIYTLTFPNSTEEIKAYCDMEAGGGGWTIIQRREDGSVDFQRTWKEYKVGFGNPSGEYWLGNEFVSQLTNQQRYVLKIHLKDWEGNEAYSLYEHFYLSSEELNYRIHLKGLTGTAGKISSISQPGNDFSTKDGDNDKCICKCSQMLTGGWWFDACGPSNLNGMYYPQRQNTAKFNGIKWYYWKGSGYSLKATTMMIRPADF
Here is the method:
as §1, §2, §3

Experiment [6] deals with T6, Ang2 RBD K468A, FLAG-tagged (human, UniProt O15123 281-496, limits assumed).
T6 chain: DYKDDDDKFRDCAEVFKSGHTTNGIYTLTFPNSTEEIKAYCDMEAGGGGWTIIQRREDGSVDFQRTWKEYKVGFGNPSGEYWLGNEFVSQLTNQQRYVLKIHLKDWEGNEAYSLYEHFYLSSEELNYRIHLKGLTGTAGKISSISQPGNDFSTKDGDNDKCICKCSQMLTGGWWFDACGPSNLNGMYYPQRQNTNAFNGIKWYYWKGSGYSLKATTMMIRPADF
As to the method: as §1, §2, §3

Experiment [7] deals with T7, Ang2 RBD F469A, FLAG-tagged (human, UniProt O15123 281-496, limits assumed).
T7 chain: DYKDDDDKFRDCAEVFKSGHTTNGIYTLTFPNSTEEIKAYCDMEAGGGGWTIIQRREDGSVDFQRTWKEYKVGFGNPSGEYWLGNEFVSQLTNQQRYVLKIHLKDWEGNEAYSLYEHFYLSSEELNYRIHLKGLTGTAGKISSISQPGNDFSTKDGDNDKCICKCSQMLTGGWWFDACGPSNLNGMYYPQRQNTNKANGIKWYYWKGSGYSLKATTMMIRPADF
Here is the method: as §1, §2, §3

B1: SAIT-ANG2-AB-m10D6 (antibody, V domains shown)
VH: DVQLQESGPDLVKPSQSLSLTCTVTGYSITSDYAWNWIRQFPGNKLEWMGYINYSGNTDYNPSLKSRSSITRDTSKNQFFLQLNSVTTGDTATYYCARGNFEGAMDYWGQGTSVTVSS
VL: SIVMTQTPKFLLVSAGDRVTITCKASQSVSNDVAWYQQKPGQSPKLLIYYASNRYPGVPDRFTGSGYGTDFTFTISTVQAEDLAVYFCQQDYSSPWTFGGGTKLEIK
notes: Mouse monoclonal antibody purified from a hybridoma (KCLRF-BP-00295); it is not applied here; also called mouse antibody 10D6; 10D6 antibody
In the case of B1, the “binding affinity (%) with mutant Ang2 against the binding affinity with the native Ang2” value in experiment [1] amounted to 38.9%; in experiment [2], 41.1%; in experiment [3], 102%; in experiment [4], 103%; in experiment [5], 107%; in experiment [6], 110%. The “binding affinity (%) with mutant Ang2 against the binding affinity with the native Ang2” value in experiment [7] was determined as 109%.
